# T1: human beta klotho mutant Y701A on HEK-293T cells (human, UniProt Q86Z14 1-1044)
# T1 sequence: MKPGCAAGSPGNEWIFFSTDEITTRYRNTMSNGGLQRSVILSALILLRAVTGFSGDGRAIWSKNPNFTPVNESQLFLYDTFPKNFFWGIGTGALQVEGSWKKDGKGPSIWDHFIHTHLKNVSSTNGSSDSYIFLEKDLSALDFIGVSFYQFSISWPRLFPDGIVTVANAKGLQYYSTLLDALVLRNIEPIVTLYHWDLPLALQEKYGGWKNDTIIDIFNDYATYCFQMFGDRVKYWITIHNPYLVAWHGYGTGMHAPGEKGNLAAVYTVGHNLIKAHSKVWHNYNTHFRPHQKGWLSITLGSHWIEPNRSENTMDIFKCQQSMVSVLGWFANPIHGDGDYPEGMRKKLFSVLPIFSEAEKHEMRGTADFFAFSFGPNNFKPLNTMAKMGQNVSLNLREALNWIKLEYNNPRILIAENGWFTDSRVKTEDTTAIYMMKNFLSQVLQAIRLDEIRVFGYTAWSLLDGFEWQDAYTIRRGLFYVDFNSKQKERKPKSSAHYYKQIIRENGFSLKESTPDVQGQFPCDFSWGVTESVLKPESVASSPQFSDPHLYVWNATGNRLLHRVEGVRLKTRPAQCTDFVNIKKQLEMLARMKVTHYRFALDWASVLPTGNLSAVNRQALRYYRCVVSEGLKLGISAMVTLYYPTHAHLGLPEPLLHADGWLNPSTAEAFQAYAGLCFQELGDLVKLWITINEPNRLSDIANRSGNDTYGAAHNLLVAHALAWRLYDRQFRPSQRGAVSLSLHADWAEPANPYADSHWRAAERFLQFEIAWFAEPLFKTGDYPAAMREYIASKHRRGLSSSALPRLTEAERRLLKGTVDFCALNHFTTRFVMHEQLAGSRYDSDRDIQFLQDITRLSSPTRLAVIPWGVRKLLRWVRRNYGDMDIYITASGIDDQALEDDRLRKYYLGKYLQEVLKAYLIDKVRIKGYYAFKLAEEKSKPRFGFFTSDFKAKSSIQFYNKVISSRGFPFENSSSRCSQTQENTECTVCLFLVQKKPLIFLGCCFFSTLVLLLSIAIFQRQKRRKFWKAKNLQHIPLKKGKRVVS
# B1: humanized 5H23 antibody (VH SEQ ID NO: 271 and VL SEQ ID NO: 276) (antibody, V domains shown)
# VH: QVQLQQSGAEVKKPGASVKVSCKASGYTFTSYDINWVRQAPGQGLEWIGWIYPGDGSTKYNEKFKGKATITRDTSASTAYMELSSLRSEDTAVYFCARSDYYGSRSFAYWGQGTLVTVSS
# VL: DIVMTQSPDSLAVSLGERATINCRASKSVSTSGYVYMHWYQQKPGQPPKLLIYLASYLESGVPDRFSGSGSGTDFTLTISSVQAEDVAVYYCQHSRDLTFPFGGGTKLEIK
# notes: also called h5H23; h5H23 (Prep 1)
# Target: T1, human beta klotho mutant Y701A on …
# Test: shotgun alanine mutagenesis, FACS on HEK-293T cells, antibody 0.5 µg/ml
# Protocol: In order to further identify specific binding residues within human beta klotho KL2 domain, shotgun mutagenesis was used to separately mutate individual residues of the KL2 domain of human beta klotho to an alanine (e.g., residues F508A-L1008A). […] For example, screening of the beta klotho mutant proteins was conducted at a concentration of 0.5 μg/ml for the humanized 5H23 antibody, 1.0 μg/ml for the Fab fragment, and 2.0 μg/ml for a positive control polyclonal anti-beta klotho antibodies.
# The resulting mapping identified three specific binding residues, H657, Y701 and R703, which were negative for binding by the humanized 5H23 antibody, but were positive for the control polyclonal anti-beta klotho antibodies. These residues represented amino acids whose side changes made the highest energetic contributions to the antibody-epitope interation as shown in Table 31. The locations of the three identified residues were modeled by showing them (dark spheres) at the equivalent positions on human cytosolic beta-glucosidase (PDB ID #2JFE; Tribolo et al., J. Mol. Biol. 370, 964-975 (2007)), identified by BLAST alignment of the two proteins as shown in FIG. 6.
binder,measurement,value
B1,Binding Reactivity (% WT),0.64 % WT

# — patent publication US20210030857A1 (NGM BIOPHARMACEUTICALS, published 2021)
